Test results taken from US9045765B2, “EPSP synthase genes conferring herbicide resistance” (priority 2006, dated 2015).

How the values were obtained:
[1] = tested on: GRG31 EPSP synthase enzymatic activity; test: Thermal stability of GRG31 enzymatic activity at 37° C. (AMPLEX Red assay, 2 mM glyphosate); assay type: biochemical, Sphingobacterium multivorum/faecium
Method: Following IPTG induction, the GRG31 protein was purified to homogeneity by standard methods. To measure enzymatic activity, the purified GRG31 enzyme was diluted to an appropriate assay concentration in buffer containing HEPES (50 mM, pH 7) and 50 mM KCl, and then incubated at 37° C. for 0, 2, 6 or 22 hours. A control sample was incubated alongside at 4° C. At each timepoint, an aliquot was removed from each sample and enzymatic assays were carried out in a final volume of 50 μl containing 0.5 mM shikimate-3-phosphate, 200 uM phosphoenolpyruvate (PEP), 1 U/ml xanthine oxidase, 2 U/ml nucleoside phosphorylase, 2.25 mM inosine, 1 U/ml horseradish peroxidase, 2 mM glyphosate, 50 mM HEPES/KOH pH 7.0, 100 mM KCl, and AMPLEX® Red (Invitrogen) according to the manufacturer's instructions. Assays were started by adding shikimate-3-phosphate. EPSP synthase activity was measured using a Spectramax Gemini XPS fluorescence spectrometer (Molecular Dynamics, excitation: 555 nm; emission: 590 nm). EPSP synthase thermal stability was calculated as the percentage of enzymatic activity at each timepoint at 37° C. relative to enzymatic activity in the control sample incubated alongside at 4° C. (Table 6).

[2] = tested on: GRG31 EPSP synthase enzymatic activity; test: Temperature optimum of GRG31 enzymatic activity (phosphate release, AMPLEX Red fluorescence); assay type: biochemical, Sphingobacterium multivorum/faecium
Method: Following IPTG induction, the GRG31 protein was purified to homogeneity by standard methods. […] Following incubation, the enzyme was heated to 90° C. for 1 minute to denature the enzyme, and then cooled to 4° C. The phosphate generated by each reaction was then added to a second assay containing inosine, purine nucleoside phosphorylase, xanthine oxidase, horseradish peroxidase, and the fluorescent substrate AMPLEX® Red (U.S. Patent Application No. 60/741,166, filed Dec. 1, 2005). Following incubation for 15 minutes at room temperature, fluorescent product was quantified using a Gemini XPS spectrofluorometer (Molecular Devices Corporation, Sunnyvale, Calif.). EPSP synthase product formation was measured, and is expressed in Table 5 as a percentage of maximal activity.

B1: GRG31: glyphosate-resistant EPSP synthase, predicted translation product of grg31, from strain ATX21318 (protein)
chain: MNQQVITLTHPSKKIQGTVQLTGSKSESNRALIIQSLSKGQVEIANLSEAADTVTLNRVLQIASDPKPGFNTIDIGPAGTAMRFLTAYLNLVKGNFILTGTERMQQRPIGILVDAMKEIGADIHYDKKVGYPPLKIEGGLFQEKDRVKIKGNISSQYISALLLIAPALKKGLTLEIEGELTSRPYVSMTLDMLKSVGIQHEWKNNAIKIAPQAFEKQTIYVEPDWSAASYWYAIAALADANASIVLPGLRKNSLQGDIAIISIMEHFGVQSSFESDGLHLNKKVIGSDVSLFNFKECPDLAQTVVVVAAALKRDVSFTGLETLKIKETDRIAALQKEIAKFGAELIEDGDTYHLKTAQVYQPEEVTFDTYEDHRMAMAFAPLALVFDQIKIAEPQVVEKSYPDFWNHLQAQAFVIE
modifications: Sphingobacterium multivorum/faecium
notes: glyphosate-resistant EPSP synthase, predicted translation product of grg31, from strain ATX21318
Percentage of control (enzymatic activity at 37° C. relative to control at 4° C.) ([1]; 0 hours at 37° C.): 100% | Percentage of control (enzymatic activity at 37° C. relative to control at 4° C.) ([1]; 2 hours at 37° C.): 86% | Percentage of control (enzymatic activity at 37° C. relative to control at 4° C.) ([1]; 6 hours at 37° C.): 68% | Percentage of control (enzymatic activity at 37° C. relative to control at 4° C.) ([1]; 22 hours at 37° C.): 29% | Percentage of Maximal Activity ([2]; 10 ° C., 15 minutes incubation): 42% | Percentage of Maximal Activity ([2]; 20 ° C., 15 minutes incubation): 62% | Percentage of Maximal Activity ([2]; 30 ° C., 15 minutes incubation): 69% | Percentage of Maximal Activity ([2]; 40 ° C., 15 minutes incubation): 80% | Percentage of Maximal Activity ([2]; 50 ° C., 15 minutes incubation): 100% | Percentage of Maximal Activity ([2]; 60 ° C., 15 minutes incubation): 96% | Percentage of Maximal Activity ([2]; 70 ° C.): 67% | Percentage of Maximal Activity ([2]; 80 ° C.): 36%
